From US20240383967A1 (UNIVERSITY OF SOUTHERN CALIFORNIA, published 2024) come the findings set out here.

The target in test [1] is T1, Recombinant human CTSL (human, UniProt P07711 114-333).
T1 construct: Bought; also called cathepsin L
In words: ratio of Ki values from fluorogenic protease activity assays.

Test [2] has as its target T1, Recombinant human CTSL. Briefly: fluorogenic protease activity assay (Z-FR-AMC), initial rates fitted to the competitive inhibition equation. As to the method: (§1) The inhibition activity of Her-HC-CTSSpp IgG was then examined with human CTSS through fluorescence-based activity assays using a fluorogenic peptide substrate Z-VVR-AMC (FIG. 5). […] CTSS and CTSL belong to the same subfamily of cathepsins. And the propeptide of proCTSS is a known inhibitor of CTSL (28,29). Therefore, the activity of Her-HC-CTSSpp IgG in inhibiting human CTSL was evaluated with a fluorogenic peptide substrate Z-FR-AMC (FIG. 5). […] To further study inhibition specificity of Her-HC-CTSSpp IgG, fluorescence-based activity assays for human CTSB and bovine trypsin were carried out in the absence or presence of Her-HC-CTSSpp IgG.
(§2) Next, inhibition potency and specificity of the designed Syn-LC-CTSSpp Fab antibody were analyzed by fluorescence-based proteolytic activity assays. […] Likewise, Syn-LC-CTSSpp Fab functions as a weaker antibody inhibitor against human CTSL.

The target of a further test is T2, Recombinant human CTSS (human, UniProt P25774 115-331).
T2 construct: Bought from R&D Systems (1183-CY-010); also called cathepsin S
In words: fluorogenic protease activity assay (Z-VVR-AMC), initial rates fitted to the competitive inhibition equation. As to the method: as §1, §2

T1 sequence (P07711 114-333): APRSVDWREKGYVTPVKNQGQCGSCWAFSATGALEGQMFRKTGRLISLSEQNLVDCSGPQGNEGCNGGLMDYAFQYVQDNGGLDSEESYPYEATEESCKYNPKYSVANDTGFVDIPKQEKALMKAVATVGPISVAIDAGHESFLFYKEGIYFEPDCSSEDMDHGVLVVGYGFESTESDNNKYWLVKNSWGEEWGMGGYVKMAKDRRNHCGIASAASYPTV

B1: Syn-LC-CTSSpp Fab (Fab)
light: QLHKDPTLDHHWHLWKKTYGKQYKEKNEEAVRRLIWEKNLKFVMLHNLEHSMGMHSYDLGMNHLGDMTSEEVMSLMSSLRVPSQWQRNITYKSNPNRGGGGSDIQMTQSPSTLSASVGDRVTITCKCQLSVGYMHWYQQKPGKAPKLLIYDTSKLASGVPSRFSGSGSGTEFTLTISSLQPDDFATYYCFQGSGYPFTFGGGTKLEIKRTVAAPSVFIFPPSDEQLKSGTASVVCLLNNFYPREAKVQWKVDNALQSGNSQESVTEQDSKDSTYSLSSTLTLSKADYEKHKVYACEVTHQGLSSPVTKSFNRGEC
heavy: QVTLRESGPALVKPTQTLTLTCTFSGFSLSTSGMSVGWIRQPPGKALEWLADIWWDDKKDYNPSLKSRLTISKDTSKNQVVLKVTNMDPADTATYYCARSMITNWYFDVWGAGTTVTVSSASTKGPSVFPLAPSSKSTSGGTAALGCLVKDYFPEPVTVSWNSGALTSGVHTFPAVLQSSGLYSLSSVVTVPSSSLGTQTYICNVNHKPSNTKVDKKVEPKSCDKTHT
Regarding B1, the “fold decrease of potency for CTSL in comparison to CTSS” value with Recombinant human CTSL [1] was approximately 12 fold. The Ki was 24.5 nM with Recombinant human CTSL [2] and 2.12 nM with Recombinant human CTSS.

B2: Her-HC-CTSSpp IgG (antibody)
heavy: EVQLVESGGGLVQPGGSLRLSCAASGFNIKDTYIHWVRQAPGKGLEWVARIYPTNGYTRYADSVKGRFTISADTSKNTAYLQMNSLRAEDTAVYYCSRGGSGAKLAALKAKLAALKCGGGGSIEGRQLHKDPTLDHHWHLWKKTYGKQYKEKNEEAVRRLIWEKNLKFVMLHNLEHSMGMHSYDLGMNHLGDMTSEEVMSLMSSLRVPSQWQRNITYKSNPNRGGGGSCELAALEAELAALEAGGSGDYWGQGTLVTVSSASTKGPSVFPLAPSSKSTSGGTAALGCLVKDYFPEPVTVSWNSGALTSGVHTFPAVLQSSGLYSLSSVVTVPSSSLGTQTYICNVNHKPSNTKVDKKVEPKSCDKTHTCPPCPAPPVAGPSVFLFPPKPKDTLMISRTPEVTCVVVDVSHEDPEVKFNWYVDGVEVHNAKTKPREEQYNSTYRVVSVLTVLHQDWLNGKEYKCKVSNKGLPSSIEKTISKAKGQPREPQVYTLPPSRDELTKNQVSLTCLVKGFYPSDIAVEWESNGQPENNYKTTPPVLDSDGSFFLYSKLTVDKSRWQQGNVFSCSVMHEALHNHYTQKSLSLSPGK
light: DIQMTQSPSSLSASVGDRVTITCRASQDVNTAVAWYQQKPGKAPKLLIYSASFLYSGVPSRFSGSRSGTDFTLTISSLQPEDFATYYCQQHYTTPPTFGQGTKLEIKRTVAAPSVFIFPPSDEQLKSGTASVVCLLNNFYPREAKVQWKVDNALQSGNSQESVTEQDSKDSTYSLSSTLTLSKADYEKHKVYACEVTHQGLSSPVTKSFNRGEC
notes: Full-length IgG expressed in Expi293F cells and purified on protein G. The propeptide of proCTSS is grafted into CDR3H of the anti-HER2 antibody Herceptin
As to B2, the results for the Ki with Recombinant human CTSL [2] and in the test with Recombinant human CTSS were 49.3 nM and 6.03 nM, respectively.

Broadly, the Ki is the dissociation constant of the complex between target and ligand, obtained from inhibition or displacement.
